Source: article PMC10381965

Molecular target: CENP-A nucleosome (CENP-A^Nuc), histone octamer of CENP-A, H4, H2A and H2B wrapped with C0N3 or CEN3 DNA (S. cerevisiae) (UniProt P36012)
Assay: SEC-MALS; CENP-A nucleosome (C0N3 or CEN3 DNA), CENP-C, CENP-LN, CENP-OPQU+, CENP-HIK-TW, CBF1 and CBF3^Core mixed at 2 μM; cross-linked with 3 mM BS3; 10 mM Hepes pH 8.0, 80 mM NaCl, 1 mM EDTA, 0.5 mM TCEP

**Q.** For “CCAN, fully assembled (CENP-C, CENP-LN, CENP-OPQU+, CENP-HIK-TW) (from UniProt P35201 1-549; P38265 1-245; P38907 1-458; Q06675 1-368; Q02732 1-369; P53298 1-406; P38313 1-324; Q12493 1-238; Q06162 1-153; Q12262 1-181; Q12748 1-733; P47167 1-239; P43618 1-361; Q2V2P8 1-89) (complex)”, which stoichiometry N is on record?
**A.** Its stoichiometry N is 2.
